Assay results taken from US6365356B1, “Receptors that regulate cell signaling relating to chemokines” (Cornell Research Foundation, Inc., priority 1999, dated 2002).

How the values were obtained:
Assay type in all cases: cell-based
[1] = biological target: T1, CXCR4 (Homo sapiens, UniProt P61073); assay: Luciferase reporter gene assay (protein kinase C-responsive promoter), COS-1 cells expressing CXCR4 but not DARC; details: COS-1 cells expressing CXCR4 alone; luciferase gene controlled by protein kinase C-responsive promoter
T1 construct: expressed in transfected cells; host or cells: COS-1 cells, transient DEAE-dextran transfection with pcDNA3.1 encoding CXCR4
T1 sequence (P61073 whole entry): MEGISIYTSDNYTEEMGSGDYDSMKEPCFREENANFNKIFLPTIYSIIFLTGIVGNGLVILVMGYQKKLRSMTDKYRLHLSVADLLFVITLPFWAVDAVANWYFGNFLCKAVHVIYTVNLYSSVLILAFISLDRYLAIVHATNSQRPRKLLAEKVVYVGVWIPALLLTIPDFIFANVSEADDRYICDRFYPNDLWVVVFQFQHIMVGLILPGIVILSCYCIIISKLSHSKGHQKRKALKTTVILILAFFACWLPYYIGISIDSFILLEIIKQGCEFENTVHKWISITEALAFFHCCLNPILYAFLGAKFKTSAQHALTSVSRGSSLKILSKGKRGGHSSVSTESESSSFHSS
Experimental: (§1) A second group of COS-1 cells were made to express DARC, but not CXCR4. A third group of COS-1 cells were made to express CXCR4, but not DARC. Signaling due to stromal cell derived factor 1 (SDF-1) and GRO-α was measured in a reporter gene assay using a luciferase gene controlled by a protein kinase C-responsive promoter.
(§2) Cell Culture and Transfection. COS-1 cells are maintained in Dulbecco's modified eagle's medium with 5% fetal calf serum and are seeded 1 day prior to transfection at 750,000 cells/100 mm dish. Cells are transfected with pcDNA3.1 (Invitrogen) encoding DARC (5 μg DNA/ml) or with pcDNA3.1 encoding CXCR4 (5 μg DNA/ml), or both using the DEAE-dextran method and maintained in Dulbecco's modified Eagle's medium with 10% fetal calf serum for 1 day at which time cells are harvested and seeded into 12-well plates at 100,000 cells/well or 24-well plates at 50,000 cells/well in Dulbecco's modified Eagle's medium with 5% fetal calf serum. Other cell lines, such as HEK-293 or CHO cells, can be stably transfected with DARC or CXCR4, or both.
(§3) Reporter Gene Assays. […] Agonists or agonists plus antagonists are added for four hours and the reporter activity measured. […]

[2] = biological target: T2, DARC and CXCR4 (Homo sapiens, UniProt Q16570); assay: Luciferase reporter gene assay (protein kinase C-responsive promoter), COS-1 cells co-expressing DARC and CXCR4; details: single chemokine
T2 construct: expressed in transfected cells; host or cells: COS-1 cells co-transfected (DEAE-dextran) with pcDNA3.1 encoding DARC and pcDNA3.1 encoding CXCR4
T2 sequence (Q16570 1-336): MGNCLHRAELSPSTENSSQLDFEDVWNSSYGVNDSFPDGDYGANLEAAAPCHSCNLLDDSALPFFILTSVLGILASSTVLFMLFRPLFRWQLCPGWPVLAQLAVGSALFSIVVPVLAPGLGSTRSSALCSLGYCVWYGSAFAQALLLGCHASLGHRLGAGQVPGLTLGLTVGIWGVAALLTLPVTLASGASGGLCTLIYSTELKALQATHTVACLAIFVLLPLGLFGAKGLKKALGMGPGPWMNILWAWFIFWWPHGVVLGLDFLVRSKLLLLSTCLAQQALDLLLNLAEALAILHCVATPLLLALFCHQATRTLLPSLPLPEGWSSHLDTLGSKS
Experimental: as §1, §2, §3

[3] = test system: DARC; assay: Luciferase reporter gene assay (protein kinase C-responsive promoter), COS-1 cells expressing DARC but not CXCR4; details: COS-1 cells expressing DARC alone; luciferase gene controlled by protein kinase C-responsive promoter
Experimental: as §1, §2, §3

Row | Substance | Signaling in reporter gene assay via CXCR4 [1] | Signaling (gene transcription) in reporter gene assay [2] | Signaling in reporter gene assay via DARC [3]
1 | growth-related protein-α [GRO-α] | did not signal | increase gene transcription | did not signal
2 | stromal cell derived factor 1 [SDF-1] | signals weakly |  | does not signal
